Patent US20030068630A1 (MYRIAD GENETICS, published 2003)

Biological target: T1, Mineralocorticoid receptor (MCR) amino acids 603-985, Gal4 DNA-binding-domain bait fusion (Saccharomyces cerevisiae, UniProt P04386 1-147; P08235 603-984)
T1 construct: range 1-147;range 603-985; Bait made as a C-terminal fusion to Gal4 DBD in vector pGBTQ; also called MCR AA 603-985
Assay: yeast two-hybrid (Gal4, beta-galactosidase read-out) with 4 uM aldosterone; bait MCR AA 603-985
Experimental: DNA was prepared from each clone, transformed by electroporation into E. coli strain KC8 (Clontech KC8 electrocompetent cells, cat. # C2023-1), and the cells were selected on ampicillin-containing plates in the absence of either tryptophane (selection for the bait plasmid) or leucine (selection for the brain library plasmid). DNA for both plasmids was prepared and sequenced by di-deoxynucleotide chain termination method. The identity of the bait cDNA insert was confirmed and the cDNA insert from the brain library plasmid was identified using BLAST program against public nucleotides and protein databases. Plasmids from the brain library (preys) were then individually transformed into yeast cells together with a plasmid driving the synthesis of lamin fused to the Gal4 DNA binding domain. Clones that gave a positive signal after β-galactosidase assay were considered false-positives and discarded. Plasmids for the remaining clones were transformed into yeast cells together with plasmid for the original bait. Clones that gave a positive signal after ,galactosidase assay were considered true positives.
A yeast two-hybrid system as described in Example 1 was performed in the presence of aldosterone. […]

B1: PN19395 amino acids 120-397, Gal4 activation-domain prey fusion (other, Saccharomyces cerevisiae, not shown: small tags and cut ends)
chain: ANFNQSGNIADSSLSFTFTNSSNGPNLITTQTNSQALSQPIASSNVHDNFMNNEITASKIDDGNNSKPLSPGWTDQTAYNAFGITTGMFNTTTMDDVYNYLFDDEDTPPNPKKELMPGAGLLPIPTPNPLTTLGVSLSSLGAIPAAALDPNIATLGEIPQPPLMGNVDPSKIDEIRRTVYVGNLNSQTTTADQLLEFFKQVGEVKFVRMAGDETQPTRFAFVEFADQNSVPRALAFNGVMFGDRPLKINHSNNAIVKPPEMTPQAAAKELEEVMKRVREAQSFISAAIEPESGKSNERKGGRSRSHTRSKSRSSSKSHSRRKRSQSKHRSRSHNRSRSRQKDRRRSKSPHKKRSKSRERRKSRSRSHSRDKRKDTREKIKEKERVKEKDREK
notes: range 768-881; Novel 624 amino acid protein; Clone from a human brain cDNA library in pACT2
- binding result: binds
